Results taken from PMC5320943 (Structure (London, England : 1993), 2016).

Columns and labels:
[1] = molecular target: wild-type vaginolysin (VLY^wt) (Gardnerella vaginalis, UniProt B2YGA4 31-516); test: MST
[2] = molecular target: T1, wild-type intermedilysin (ILY^wt) (Streptococcus intermedius, UniProt Q9LCB8 34-532); test: MST
T1 sequence: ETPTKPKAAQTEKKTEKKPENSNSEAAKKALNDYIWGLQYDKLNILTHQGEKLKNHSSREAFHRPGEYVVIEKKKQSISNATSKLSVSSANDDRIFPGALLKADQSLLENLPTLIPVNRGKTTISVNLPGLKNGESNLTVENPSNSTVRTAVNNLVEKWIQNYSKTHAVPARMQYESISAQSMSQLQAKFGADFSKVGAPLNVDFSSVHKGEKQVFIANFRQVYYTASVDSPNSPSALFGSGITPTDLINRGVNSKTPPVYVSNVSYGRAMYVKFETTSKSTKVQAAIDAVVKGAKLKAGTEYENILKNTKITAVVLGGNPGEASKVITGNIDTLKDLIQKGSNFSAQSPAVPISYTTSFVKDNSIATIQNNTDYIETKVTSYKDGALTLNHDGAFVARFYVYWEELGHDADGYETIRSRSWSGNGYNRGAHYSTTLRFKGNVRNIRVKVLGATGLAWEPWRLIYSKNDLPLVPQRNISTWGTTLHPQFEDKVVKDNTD

B1: CD59 mutant D22A (CD59^D22A) (receptor, human)
chain: LQCYNCPNPTADCKTAVNCSSAFDACLITKAGLQVYNKCWKFEHCNFNDVTTRLRENELTYYCCKKDLCNFNEQLEN
modifications: Dylight 650 label (in the microscale thermophoresis only)
Kd [1]: 779 nM | Kd [2]: 367 nM
